B1: Azoarcus group I ribozyme (parent)
chain: GUGCCUUGCGCCGGGAAACCACGCAAGGGAUGGUGUCAAAUUCGGCGAAACCUAAGCGCCCGCCCGGGCGUAUGGCAACGCCGAGCCAAGCUUCGGCGCCUGCGCCGAUGAAGGUGUAGAGACUAGACGGCACCCACCUAAGGCAAACGCUAUGGUGAAGGCAUAGUCCAGGGAGUGGCGAAAGUCACACAAACCGG

The series covers variants of B1. Nature of the series: reverse-splicing fitness (ratio to wild type); higher = more active; in vitro selection; Mg2+ level not given. The method in brief: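 An in vitro group I ribozyme library with randomized positions was T7-transcribed and gel-purified. In triplicate, 10 pmol RNA in EPPS pH 7.5 was reacted with 50 pmoles of a 30-nt RNA substrate for 1 h at 37 °C across several added MgCl2 levels (1–48 mM), then stopped with EDTA. Products were reverse transcribed from a substrate-complementary primer, PCR-amplified and sequenced (HiSeq 4000). Fitness is a variant's read proportion after selection over that before, normalised to wild type.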
With C82A A111U A120G A145G C150A C169A, the reverse-splicing fitness came to 0.0112.
The value for C82G A111G A120U A145C C150A C169A U176A was 0.00209.
Consider C82A A111U A145G C150G C169A U176C, for which the reverse-splicing fitness turned out to be 0.0137.
In the case of C82A A111U A120G A145C C150A U176G, the reverse-splicing fitness was found to be 0.00549.
In the case of C82A A111G A120C A145C C169A U176C, the reverse-splicing fitness worked out at 0.0109.
In the case of A111U A120U A145C C150G it was 0.0741; in that of C82A A111G A145U U176A, 0.179.
In the case of C82A A111G A120C C169U U176G, the reverse-splicing fitness stood at 0.00535.
In the case of A111C A145U C169G U176C it was 0.0264; in that of A145U C150U C169U U176C, 0.141; in that of C82G A111G A145C C150A C169G U176C, 0.0122.
With A111C A145G C150A C169A U176C, the reverse-splicing fitness was 0.0182.
For C82G A111C A145G C150U U176G, the reverse-splicing fitness is 0.0306.
Take C82U A111C A120U A145C C150U U176G: the reverse-splicing fitness was determined as 0.0029.
On to A120U A145U C150A C169U U176A, for which the reverse-splicing fitness was 0.0134.
For C82A A111G A120C A145C C150A C169G, the reverse-splicing fitness was determined as 0.00832.
In the case of A111G A120G A145G C150G C169G, the reverse-splicing fitness turned out to be 0.0306.
On to C82G A111U A120G A145U C150A C169U U176C, for which the reverse-splicing fitness came to 0.0142.
Regarding A111U A120G A145G C150G C169G U176A, the reverse-splicing fitness is 0.00971.
Regarding A111C A145G C150G C169G U176A, the reverse-splicing fitness worked out at 0.00954.
Regarding A111C A120C A145G C150U C169U U176G, the reverse-splicing fitness is 0.00486.
In the case of C82U A111U A120U A145C C150U C169A U176C, the reverse-splicing fitness was found to be 0.00253.
In the case of C82A A111C C150A C169A U176G it was 0.00857; in that of C82A A111C A120U A145G C150G C169U U176G, 0.00484.
In the case of C82G A120U C169A it was 0.00257; in that of C82U A111C A120U A145U C150U C169A U176C, 0.00282; in that of C82G A120U C150A C169G U176A, 0.00631.
The value for C82U A111U A120C A145G C150A C169A U176G was 0.0059; that for C82G A120C C150G C169A U176G was 0.0082.
As for C82G A120G A145G C169U U176C, the reverse-splicing fitness was 0.0199.
As for A111G A145C, the reverse-splicing fitness amounted to 0.876.
As to A120U A145U C150A U176C, the reverse-splicing fitness was found to be 0.141.
For the variant A111U A120C A145C C169U U176A, the reverse-splicing fitness was found to be 0.0309.
Regarding C82G A111G A120G C150U C169U U176A, the reverse-splicing fitness was 0.0189.
In the case of C82U A111U A120C A145C C150A C169A U176C it was 0.0057; in that of C82A A111G A120C A145U C150G C169A U176G, 0.00597.
For the variant C82U A111U A145C C150U U176G, the reverse-splicing fitness worked out at 0.011.
As to C82U A145U C150U U176C, the reverse-splicing fitness was 0.346.
As to C82G A111C A120U A145G U176A, the reverse-splicing fitness was determined as 0.0112.
For C82A A111G A145G C150A C169A U176C, the reverse-splicing fitness was determined as 0.0215.
In the case of A111G A120U A145U C150U C169A U176A it was 0.00375; in that of A111G A120U A145C C150G C169U, 0.014; in that of A111U A120C A145G C150G C169G U176C, 0.0106.
On to C82G A111C A120C A145U C150A C169A, for which the reverse-splicing fitness was determined as 0.00835.
For C82G A111G A120U A145U C150A C169U, the reverse-splicing fitness amounted to 0.0024.
The value for C82A A111U A120U A145U C150U C169U U176A was 0.00333.
Regarding C82A A111U C150A U176A, the reverse-splicing fitness turned out to be 0.0197.
Take A111G A120C C169G U176G: the reverse-splicing fitness was found to be 0.00351.
Regarding C82G A111C A120G A145C C150A C169A U176G, the reverse-splicing fitness was determined as 0.00562.
For the variant A111U C150G C169U U176A, the reverse-splicing fitness was found to be 0.00776.
The value for C82U A111G A120U U176A was 0.011; that for C82A A111G A145U C150G C169G U176C was 0.00567.
The value for C82G A111U A120U A145U C150A C169U U176A was 0.00313; that for C82G A111U A120U A145U C150A C169U U176C was 0.00276; that for C82A A111G A120C A145G C150G C169U U176C was 0.0117.
In the case of A111C A120C A145U C150A C169U U176C, the reverse-splicing fitness was found to be 0.0144.
Take A111C A145U C150G C169U U176A: the reverse-splicing fitness came out at 0.0095.
Regarding C82A A111C A120U A145G C150A U176C, the reverse-splicing fitness turned out to be 0.00799.
As for C82U A111U A120G A145U C150U C169G U176C, the reverse-splicing fitness was 0.0134.
In the case of C82U A111U A120U A145C C150U C169G U176C, the reverse-splicing fitness is 0.00287.
Regarding C82U A111U A120U A145U C150A C169A U176C, the reverse-splicing fitness was found to be 0.00283.
In the case of C82U A111U A120U A145U C150A U176A, the reverse-splicing fitness stood at 0.00357.
The value for C82G A111C A120G A145C C150A U176A was 0.0121; that for C82U A111G A145C C150A C169A U176C was 0.00627.
In the case of C82A A111U A120G U176C, the reverse-splicing fitness was 0.0189.
Consider C82U A111C A120C A145C C150A U176C, for which the reverse-splicing fitness was 0.0116.
Consider C82G A111U A120C A145U C150A U176A, for which the reverse-splicing fitness turned out to be 0.0101.
Regarding C82G A111U A145U C169G U176G, the reverse-splicing fitness is 0.00618.
In the case of C82A A111G A145G C150G C169G U176A, the reverse-splicing fitness was found to be 0.0112.
For the variant C82A A111G A120U A145U C150G C169G U176G, the reverse-splicing fitness came out at 0.00259.
Take C82G A111G A120U C169U U176G: the reverse-splicing fitness stood at 0.00158.
The value for C82U A111C A120U A145C C150G C169U was 0.00396; that for C82G A111G A120U A145G C150U U176A was 0.0125.
In the case of C82A A145C C150G C169G U176C it was 0.0067; in that of C82U A111U A120U A145U C169A U176C, 0.00301.
In the case of A111C A145G C150G U176C it was 0.13; in that of C82U A111U A120U A145U C150G U176G, 0.00226.
In the case of C82A A111U A120C C150G C169G, the reverse-splicing fitness came out at 0.00832.
In the case of A111U A120G C150G C169G U176G it was 0.00442.
With C82G A111G A120G A145G C150A, the reverse-splicing fitness amounted to 0.0101.
In the case of C82G A111C A145U C150G C169G U176G, the reverse-splicing fitness came to 0.00802.
As for C82U A111C A120U A145G C150U C169G, the reverse-splicing fitness stood at 0.00549.
Turning to C82G A111C A145C C150G C169A U176C, the reverse-splicing fitness amounted to 0.00828.

These data come from the RNAGym collection of RNA variant scans (doi:10.1093/molbev/msab373).
